This is an account of results in US10829799 (UNIVERSITY COURT OF THE UNIVERSITY OF DUNDEE, dated 2020).

The test addresses T1, NAE (NEDD8 E1; Dac-NAE1-UBA3) (UniProt Q13564 1-534; Q8TBC4 1-463).
T1 construct: Co-expressed in Sf21 cells from pFastBacDual; not shown: Dac tag
T1 sequence (looked up) 1: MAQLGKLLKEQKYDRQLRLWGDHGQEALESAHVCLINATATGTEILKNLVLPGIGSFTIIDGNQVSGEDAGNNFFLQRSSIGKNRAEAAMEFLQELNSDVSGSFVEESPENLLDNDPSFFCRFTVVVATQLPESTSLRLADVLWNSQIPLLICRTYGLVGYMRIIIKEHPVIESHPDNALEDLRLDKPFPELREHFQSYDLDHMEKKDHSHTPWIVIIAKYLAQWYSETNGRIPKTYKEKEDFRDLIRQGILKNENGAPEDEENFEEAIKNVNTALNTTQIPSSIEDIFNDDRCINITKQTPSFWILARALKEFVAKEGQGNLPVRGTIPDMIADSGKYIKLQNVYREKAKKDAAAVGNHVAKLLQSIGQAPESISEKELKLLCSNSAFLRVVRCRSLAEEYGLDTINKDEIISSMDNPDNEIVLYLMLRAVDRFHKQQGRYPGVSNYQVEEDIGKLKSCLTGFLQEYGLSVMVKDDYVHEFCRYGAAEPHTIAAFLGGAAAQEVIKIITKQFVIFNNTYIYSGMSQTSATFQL
T1 sequence (looked up) 2: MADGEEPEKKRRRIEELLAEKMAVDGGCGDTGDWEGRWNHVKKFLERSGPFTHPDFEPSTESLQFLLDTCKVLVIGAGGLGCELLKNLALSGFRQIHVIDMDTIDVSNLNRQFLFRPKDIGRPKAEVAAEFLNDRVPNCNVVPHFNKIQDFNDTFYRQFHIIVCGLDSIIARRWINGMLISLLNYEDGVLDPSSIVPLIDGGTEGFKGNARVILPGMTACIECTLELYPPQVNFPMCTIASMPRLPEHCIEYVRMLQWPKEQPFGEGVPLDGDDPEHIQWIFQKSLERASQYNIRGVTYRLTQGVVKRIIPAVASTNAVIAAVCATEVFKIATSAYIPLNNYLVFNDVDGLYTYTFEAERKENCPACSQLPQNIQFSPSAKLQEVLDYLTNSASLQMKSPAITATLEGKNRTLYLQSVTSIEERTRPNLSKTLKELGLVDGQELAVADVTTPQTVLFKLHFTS
As to the kind of experiment: covalent activity-based labelling, SDS-PAGE (FIG. 3C). The method, then:
E2 probes (14 μM) were mixed with E1 enzyme (3.5 μM) and diluted 10× reaction buffer (500 mM Na_2HPO_4 pH 8) or 10×Ub-ATP buffer (500 mM Na_2HPO_4 pH 8, 20 μM ubiquitin, 20 mM ATP) to a final volume of 15-50 μL. Reactions were incubated at 30° C. and 15 μL aliquots were taken at 1 and 5 h time points which were quenched with 5 μL of reducing SDS-gel loading buffer (NuPAGE LDS loading buffer (4×), 715 mM 2-mercaptoethanol). The quenched reaction solutions were boiled for 5 minute at 100° C. and then 4 μL was analysed by SDS-PAGE (NuPAGE Bis-Tris, 4-12%).

B1: UBE2M-=CN (enzyme)
chain: MGSSHHHHHHSSGLEVLFQGPGSPEFPGVDSKAAAMIKLFSLKQQKKEEESAGGTKGSSKKASAAQLRIQKDINELNLPKTCDISFSDPDDLLNFKLVICPDEGFYKSGKFVFSFKVGQGYPHDPPKVKCETMVYHPNIDLEGNVCLNILREDWKPVLTINSIIYGLQYLFLEPNPEDPLNKEAAEVLQNNRRLFEQNVQRSMRGGYIGSTYFERCLK
modifications: labelled with TDMA 1 (thioacrylonitrile); 4 of 5 cysteines modified
notes: Legend notes a double band due to degradation of UBE2M
As for B1, the binding result is given as “binds”.
